In the supplement of paper PMC9732359:
± gives the uncertainty stated by the source.

assay: protein stability index of a GFP-peptide fusion (yeast GPS) (PSI 1-4); higher = more stable; sorted into four equal gates, so the index is relative within each strain; conditions: san1∆
Method in brief: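 Tiled 17-residue peptides from yeast proteins were fused downstream of GFP on a plasmid that also expresses Cherry, and the pooled library was carried in yeast. Mid-log cultures grown in leucine-free medium were sorted into four equal gates by GFP/Cherry fluorescence ratio. Plasmids from each gate were PCR-amplified and Illumina-sequenced, and reads were assigned to strains by barcodes. Each peptide's protein stability index is the sum, over gates, of the gate's read frequency multiplied by its gate number.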

In the case of VHGKAPMLMANNDVFTI [SSN3], the protein stability index is reported as 2.48 ± 0.095.

same assay, conditions: ubr1∆

In order of falling protein stability index:
1. TPEMNVTNNVEEGEFII [TAF14]  3.62 ± 0.22
2. TVHEMEEELKKLRDHEP [SMC4]  3.62 ± 0.2
3. VGDEFKGYVFKISGGND [RPS6A]  3.58 ± 0.13
4. TTESSDLKEGLQDLSRY [GRR1]  3.55 ± 0.045
5. VDIKGEDLHEKNDSAEV [NUT1]  3.55 ± 0.12
6. VGSVTYQVDEDVKSSLS [YJL039C/NUP192]  3.48 ± 0.1
7. TTDDEEEPIKKLCYVLG [RET1]  3.46 ± 0.17
8. TPSSNSNSSELEPDYQA [MED1]  3.43 ± 0.1
9. VELIESKINELSYYVEE [SMC4]  3.4 ± 0.083
10. TTSEKQEVTNEAPFLTS [GAL11]  3.36 ± 0.067
11. VADAKQLGEWAGLGKID [RPS12]  3.35 ± 0.13
12. VARFLHFNGIRRLDALV [ITC1]  3.35 ± 0.08
13. VDFDGLDIKRVGSENVE [SNF12]  3.35 ± 0.1
14. TRLWGSVYYHKGNFRTK [SNU114]  3.32 ± 0.082
15. VDLEEVMDTIQEQITLY [SSN8]  3.32 ± 0.08
16. VDFSKYNTNFNLLLREL [SRP72]  3.31 ± 0.056
17. VDVKPKSPKERELEERA [RPC25]  3.31 ± 0.13
18. TTAEPKAKRAKTGSAST [TAF14]  3.29 ± 0.053
19. TPISNEQTEGEPKKKRG [SRP68]  3.27 ± 0.068
20. VDEELGPSIYKTDPAGY [SCL1]  3.27 ± 0.083
21. TQAKKLYHHTTKTILSG [SRP72]  3.26 ± 0.046
22. TTRNGFMEAQGAGIQII [FAS2]  3.26 ± 0.11
23. TSLLNKVLKSGSGVDSS [RRP42]  3.21 ± 0.12
24. TTKLAFLVEYEGQENNY [SIR4]  3.19 ± 0.052
25. VAHSSRLANLIDYKLRV [SMB1]  3.17 ± 0.066
26. VDPASAPNHSPEIDNLD [RRP6]  3.16 ± 0.059
27. TPTDVIGVVSLTNGVTE [RRP6]  3.15 ± 0.059
28. VGKDTPFTIYDGEAVAK [PRE5]  3.15 ± 0.051
29. VFVDGEANWPLPVNIRR [RPO21]  3.13 ± 0.072
30. TVLADEFIAHRLGLIPL [RPB3]  3.12 ± 0.071
31. VAARGLDIPNVSLVVNF [PRP28]  3.1 ± 0.15
32. TPVQPDLSVTPQKSSSK [YAR002W/NUP60]  3.093 ± 0.027
33. TVMYQRRSKMNPLWNAI [PRE4]  3.09 ± 0.072
34. TPAFGSNNTGNTAFGNS [YJL041W/NSP1]  3.08 ± 0.049
35. TWEECVFFDDDPLYDIT [REC8]  3.08 ± 0.059
36. VEEAHDFNMKLAINAKT [RPB2]  3.08 ± 0.05
37. VDKNFDKLELYVLRNVL [MTW1]  3.05 ± 0.071
38. VEESSEKKQKTESQDVE [DPB4]  3.03 ± 0.07
39. TQLQRGGTSDMNYLLDN [CSI1]  3.02 ± 0.078
40. TPAAATSPIDIREKVAK [SNF2]  3.01 ± 0.1
41. TRQFEGRSNEIVKTTTK [PRP8]  3 ± 0.044
42. TRSAKKMVIAELLPHYP [YJR042W/NUP85]  3 ± 0.074
43. VCLMQISTRERDYLVDT [RRP6]  2.99 ± 0.089
44. TRINGLNSNNSIIGNKN [REC8]  2.98 ± 0.051
45. TQHKVTQYKAGKASLFA [RPL42A]  2.96 ± 0.068
46. TVLESLGRLNKLRKIAI [LIN1]  2.95 ± 0.035
47. VDPLKSLEDKILRMGAF [RRI1]  2.94 ± 0.094
48. TPANTNNSTSNANTVFS [SWI1]  2.931 ± 0.028
49. VASSTNFTSPTAVVNNA [SWI1]  2.91 ± 0.069
50. TPNMVNSEISNLPKDKS [SSN2]  2.9 ± 0.066
51. VAGLEDKFRKACSSSGR [SIR3]  2.9 ± 0.056
52. TRVHQLMLEDAVTEREV [MCD1]  2.89 ± 0.12
53. VAPVSEIVNMVPSHVPQ [SIR2]  2.87 ± 0.046
54. TPRDRRKSVFAPLNFNP [SSN2]  2.86 ± 0.045
55. TQTSKEQEIENNGLPMK [ITC1]  2.86 ± 0.089
56. TVVISQKKVPDKLLDPT [SCL1]  2.86 ± 0.068
57. VELPYGAHGYSGFYTFS [PRE1]  2.83 ± 0.095
58. VHDIFSKIFNESFPDDI [CDC53]  2.82 ± 0.06
59. TREDVSPHYNSQKQTLI [SSN3]  2.81 ± 0.051
60. TVIKFRAGVCEYNEDSR [RPN13]  2.77 ± 0.07
61. VANYSAMANAPGNNIPY [GAL11]  2.76 ± 0.16
62. VHGKAPMLMANNDVFTI [SSN3]  2.72 ± 0.074
63. VEVIKQLSLDASKTNLR [GAL11]  2.71 ± 0.049
64. TSGEAAALGMGLCMLGT [RPN2]  2.68 ± 0.1
65. TPKVVRSQDQENPAFLP [SEC65]  2.65 ± 0.055
66. TVEGISKLLREHGYQSR [RPB2]  2.64 ± 0.093
67. TYVITKNGKIYLKHNSI [RET1]  2.64 ± 0.028
68. TYKYFEVILVDPQHKAI [RPL15A]  2.63 ± 0.12
69. TSAGIMDHEEARRKHVS [RPS22A]  2.62 ± 0.15
70. TSSQKEPFFLVTKITDM [SRB8]  2.62 ± 0.054
71. VEAIRRSNQYQRGKMHG [NUT2]  2.6 ± 0.099
72. TRSNPPFKRKMLLVDII [REC8]  2.58 ± 0.061
73. TSSKSSSLSAIIVFGYP [YDL088C/ASM4]  2.58 ± 0.05
74. TTLTIMRILPRETDPLV [RPT4]  2.52 ± 0.039
75. TSSNIVLETHESGIKPY [RPT6]  2.47 ± 0.061
76. TNVSKQNDFLFSVGESL [ECM29]  2.46 ± 0.053
77. VDIYSLPLISTDVLEIS [YMR129W/POM152]  2.44 ± 0.044
78. TVTDDARIFEFPKTTVA [RPL18A]  2.42 ± 0.057
79. VALTGLLIRSKTEDPKG [YML031W/NDC1]  2.28 ± 0.032
80. TRGPFHFRAPSRILYKA [RPL16B]  2.27 ± 0.042
81. TYVLNTWTNSKIFIKDP [YML103C/NUP188]  2.23 ± 0.034
82. VDIYTHFTSPIRRYCDV [DIS3]  2.19 ± 0.04
83. TSLLYLSTLEPSTSITL [RPN9]  2.13 ± 0.045
84. TYAAEIAHNISAKNRVV [RPL32]  2.13 ± 0.039
85. VESVCQKLDILVAKLKK [SMC4]  2.12 ± 0.048
86. VAFDNINTHIETLAYNS [SNF2]  1.99 ± 0.058
87. VHCRISCQIAQPYEDRP [RRP45]  1.92 ± 0.077
88. VDSQGLPYNWDALEMQW [ARP7]  1.91 ± 0.073
89. VCQVTKFGLLLQVSAQE [ECM29]  1.9 ± 0.04
90. TSCTIPKAVVDHINGSG [GAL11]  1.79 ± 0.087
91. TSIHSTISILAAPSGNY [RRP43]  1.67 ± 0.029
92. VDAGIALNSMCASIPIA [RRP46]  1.66 ± 0.16
93. VFSHAQTAVTCESCSTI [RPS27A]  1.51 ± 0.076
94. VFLLLQAYFSRLELPVD [BRR2]  1.48 ± 0.041
95. VDPARRQILFKYPMYMQ [MED6]  1.47 ± 0.051
96. VANSTKAAFIRVNGSEF [RPT3]  1.44 ± 0.034
97. TQSGGVRPFGVSTLIAG [PRE6]  1.43 ± 0.081
98. TRYNRDYMLSMANIPER [SNU114]  1.43 ± 0.047
99. VFLLTTRAGGLGINLVT [ISW2]  1.4 ± 0.13
100. VDQNPLTMHKIIQLILW [SRB8]  1.36 ± 0.081
101. VECAQHCIDYLRKNKLG [SMC4]  1.36 ± 0.058
102. VEYKLTFVPTNSDKPRD [DIS3]  1.05 ± 0.11
